Experimental data taken from US20190091326A1.

What was measured:
[1] = molecular target: JRFL-E168K V1/V2 scaffold, wildtype, gD-tagged, produced in normal 293 HEK cells (herpes simplex virus 1; HIV-1 isolate JRFL) (UniProt Q69091); test: ELISA; table row JRFL-E168K V1/V2 wt, column 293
[2] = molecular target: 108060 V1/V2 scaffold, wildtype, gD-tagged, produced in GnTI- 293 HEK cells (herpes simplex virus 1; HIV-1 isolate 108060); test: ELISA; table row 108060 V1/V2 wt, GnTI-
[3] = molecular target: ZM109 V1/V2 scaffold, wildtype, gD-tagged, produced in GnTI- 293 cells (herpes simplex virus 1; HIV-1 isolate ZM109); test: ELISA; table row ZM109 V1/V2 wt, GnTI-
[4] = molecular target: 108060 I169K/E172V V1/V2 scaffold, gD-tagged, produced in normal 293 HEK cells (herpes simplex virus 1; HIV-1 isolate 108060); test: ELISA; table row 108060 V1/V2 I169K/E172V, column 293
[5] = molecular target: ZM233 V1/V2 scaffold, wildtype, gD-tagged, produced in normal 293 HEK cells (herpes simplex virus 1; HIV-1 isolate ZM233); test: ELISA; table row ZM233 V1/V2 wt, column 293
Bal.01 V1/V2 wt (293) = test: ELISA; table row Bal.01 V1/V2 wt, column 293
[6] = molecular target: 108060-I169K V1/V2 scaffold, gD-tagged, produced in GnTI- 293 HEK cells (herpes simplex virus 1; HIV-1 isolate 108060); test: ELISA; table row 108060 V1/V2 I169K, GnTI-
[7] = molecular target: A244 V1/V2 scaffold, engineered, gD-tagged, produced in normal 293 HEK cells (herpes simplex virus 1; HIV-1 isolate A244) (UniProt Q69091); test: ELISA; table row A244 V1/V2.eng1*, column 293
[8] = molecular target: 108060 V1/V2 scaffold, wildtype, gD-tagged, produced in normal 293 HEK cells (herpes simplex virus 1; HIV-1 isolate 108060); test: ELISA; table row 108060 V1/V2 wt, column 293
[9] = molecular target: ZM233 V1/V2 scaffold, engineered, gD-tagged, produced in normal 293 HEK cells (herpes simplex virus 1; HIV-1 isolate ZM233); test: capture ELISA on 34.1 anti-gD; scaffold made in 293F cells
ZM233 mutant, Mock = test: ELISA of mock- or Endo H-digested scaffold, PG9 titrated, absorbance 490 nm
MN mutant, Mock = test: as above
[10] = molecular target: MN V1/V2 scaffold, engineered, gD-tagged, produced in normal 293 HEK cells (herpes simplex virus 1; HIV-1 isolate MN); test: capture ELISA on 34.1 anti-gD; purified scaffold made in 293 cells
[11] = molecular target: ZM233 V1/V2 scaffold, engineered, gD-tagged, produced in normal 293 HEK cells (herpes simplex virus 1; HIV-1 isolate ZM233); test: as above
[12] = molecular target: 108060 I169K/E172V/T161M/N156I/S164G/D167G V1/V2 scaffold, gD-tagged, produced in normal 293 HEK cells (herpes simplex virus 1; HIV-1 isolate 108060); test: as above
[13] = molecular target: A244 V1/V2 scaffold, engineered, gD-tagged, produced in normal 293 HEK cells (herpes simplex virus 1; HIV-1 isolate A244) (UniProt Q69091); test: as above
[14] = molecular target: JRFL-E168K V1/V2 scaffold, engineered, gD-tagged, produced in normal 293 HEK cells (herpes simplex virus 1; HIV-1 isolate JRFL); test: as above

In the case of PG9 monoclonal antibody, the EC50 [1] is reported as > 10 µg/mL, the EC50 [2] is reported as > 10 µg/mL and the EC50 [3] is reported as 0.0143 µg/mL. The EC50 [4] was > 10 µg/mL, the EC50 [5] was 0.077 µg/mL and the EC50 (Bal.01 V1/V2 wt (293)) was 0.853 µg/mL. For the same substance, the EC50 [6] was 0.679 µg/mL, the EC50 [7] was 0.099 µg/mL and the EC50 [8] was > 10 µg/mL. The EC50 [9] was 0.002 µg/mL, the EC50 (read off the curve) (ZM233 mutant, Mock) was 0.03 µg/mL and the EC50 (read off the curve) (MN mutant, Mock) was 0.1 µg/mL. For the same substance, the EC50 [10] was 0.0274 µg/mL, the EC50 [11] was 0.00227 µg/mL and the EC50 [12] was 0.093 µg/mL. The EC50 [13] was 0.0991 µg/mL and the EC50 [14] was 0.0473 µg/mL.
